{"source": "the supplement of paper PMC9170038", "test_system": "MS2 coat protein", "test": "apparent KD of MS2 coat protein; higher = weaker reporter binding", "details": "Eterna round: R107", "experimental": "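RNA-MaP round R107: designed RNA switches with theophylline, tryptophan, arginine or FMN aptamers are transcribed on-chip within common flanks. They are titrated with SNAP-549-labelled MS2 coat protein in RNA-MaP buffer (100 mM Tris pH 7.5, 80 mM KCl, 4 mM MgCl2), without ligand or with the indicated ligand. Median apparent KD per design.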", "key": {"[1]": {"details": "input ligand: theophylline 20 uM"}, "[2]": {"details": "input ligand: theophylline 2 mM"}, "[3]": {"details": "input ligand: tryptophan 2.4 mM"}}, "data": [{"sequence": "GUGUACAUGAGGAUCACCCAUGUCGAGUUACGAGGACCGGUACGGCCGCCACUCGGCGGCUCGACACGGAUAGCGGUGCGUUGCU [Exclusion - Tryptophan A]", "values": [{"measurement": "apparent KD of MS2 coat protein", "setting": "input ligand: arginine 13.2 mM", "value": 18.2, "unit": "nM"}, {"measurement": "apparent KD of MS2 coat protein", "setting": "input ligand: none", "value": 33.2, "unit": "nM"}, {"measurement": "apparent KD of MS2 coat protein", "setting": "[1]", "value": 40.8, "unit": "nM"}, {"measurement": "apparent KD of MS2 coat protein", "setting": "[2]", "value": 35.4, "unit": "nM"}, {"measurement": "apparent KD of MS2 coat protein", "setting": "[3]", "value": 129, "unit": "nM"}]}, {"sequence": "AAACGCCACGGAAGGAGCGACAUGAGGAUCACCCAUGUAGAUUUGGCGGAUGCACCCUCCUGUCAGGUAGGUCGCCGUGCGAUAA [XArg-B25]", "values": [{"measurement": "apparent KD of MS2 coat protein", "setting": "input ligand: arginine 13.2 mM", "value": 33.9, "unit": "nM"}, {"measurement": "apparent KD of MS2 coat protein", "setting": "input ligand: none", "value": 60.8, "unit": "nM"}, {"measurement": "apparent KD of MS2 coat protein", "setting": "[1]", "value": 109, "unit": "nM"}, {"measurement": "apparent KD of MS2 coat protein", "setting": "[2]", "value": 89, "unit": "nM"}, {"measurement": "apparent KD of MS2 coat protein", "setting": "[3]", "value": 86.6, "unit": "nM"}]}, {"sequence": "AUAACAUGAGGAUCACCCAUGUAAGCAGAUACCAGCUAGGAAACUAGCCCUUGGCAGCUGCAAGGUGAUCCUAGGUAUCUGCAAU [(M1)-(M2)-(T1)-(T2)-(M)'-(T)'_Design6]", "values": [{"measurement": "apparent KD of MS2 coat protein", "setting": "input ligand: arginine 13.2 mM", "value": 30.4, "unit": "nM"}, {"measurement": "apparent KD of MS2 coat protein", "setting": "input ligand: none", "value": 24.7, "unit": "nM"}, {"measurement": "apparent KD of MS2 coat protein", "setting": "[1]", "value": 49.3, "unit": "nM"}, {"measurement": "apparent KD of MS2 coat protein", "setting": "[2]", "value": 52.2, "unit": "nM"}, {"measurement": "apparent KD of MS2 coat protein", "setting": "[3]", "value": 25.9, "unit": "nM"}]}, {"sequence": "GGCACAUAGUCGGCCGCCACUAGUGGGAAAUGGGAGAACAUGAGGAUCACCCAUGUAUUAUAGCCUAGGACCGGGACUAUGUGCC [Mammoth]", "values": [{"measurement": "apparent KD of MS2 coat protein", "setting": "input ligand: arginine 13.2 mM", "value": 145, "unit": "nM"}, {"measurement": "apparent KD of MS2 coat protein", "setting": "[1]", "value": 196, "unit": "nM"}, {"measurement": "apparent KD of MS2 coat protein", "setting": "[2]", "value": 259, "unit": "nM"}]}, {"sequence": "UAAAACAUGAGGAUCACCCAUGUAAUUGAUACCAGAGUGAUGAUCCUCCCUUGGCAGCAAAUAACGCAUUGAUUACAAUGCGAAA [Mat - Same State Theophlline A - Mod of Eli - D27]", "values": [{"measurement": "apparent KD of MS2 coat protein", "setting": "input ligand: arginine 13.2 mM", "value": 27.9, "unit": "nM"}, {"measurement": "apparent KD of MS2 coat protein", "setting": "[1]", "value": 105, "unit": "nM"}, {"measurement": "apparent KD of MS2 coat protein", "setting": "[3]", "value": 35, "unit": "nM"}]}, {"sequence": "GGUGGCUGGAUUGAUACCAGCCACCACCGAUAGACCACAUGAGGAUCACCCAUGUUGGGUGGCCCUUGGCAGCAGUCCAGCUGCC [#1 Same State - Theophylline B Attempt #9 (HarryS)]", "values": [{"measurement": "apparent KD of MS2 coat protein", "setting": "input ligand: arginine 13.2 mM", "value": 70.5, "unit": "nM"}, {"measurement": "apparent KD of MS2 coat protein", "setting": "input ligand: none", "value": 388, "unit": "nM"}, {"measurement": "apparent KD of MS2 coat protein", "setting": "[1]", "value": 649, "unit": "nM"}, {"measurement": "apparent KD of MS2 coat protein", "setting": "[2]", "value": 828, "unit": "nM"}, {"measurement": "apparent KD of MS2 coat protein", "setting": "[3]", "value": 886, "unit": "nM"}]}, {"sequence": "ACAUGAGGAUCACCCAUGUUUGAUGUUCCUCGAGGACCGGUACGGCCGCCACUCGAACGAGUGGCACGCGAGUGCGCACUCGCGU [aTa]", "values": [{"measurement": "apparent KD of MS2 coat protein", "setting": "input ligand: arginine 13.2 mM", "value": 14.3, "unit": "nM"}, {"measurement": "apparent KD of MS2 coat protein", "setting": "input ligand: none", "value": 11.3, "unit": "nM"}, {"measurement": "apparent KD of MS2 coat protein", "setting": "[1]", "value": 19.9, "unit": "nM"}, {"measurement": "apparent KD of MS2 coat protein", "setting": "[2]", "value": 15.6, "unit": "nM"}, {"measurement": "apparent KD of MS2 coat protein", "setting": "[3]", "value": 13.6, "unit": "nM"}]}, {"sequence": "CGUGUGCGUUCUGAUACCAGAGACAUGAGGAUCACCCAUGUCCGAUCGUCCUGCCUCAGACUCCCUUGGCAGCAGGUUUUGUGCU [Exclusion Theophylline B GF4]", "values": [{"measurement": "apparent KD of MS2 coat protein", "setting": "input ligand: arginine 13.2 mM", "value": 29.5, "unit": "nM"}, {"measurement": "apparent KD of MS2 coat protein", "setting": "[1]", "value": 56.7, "unit": "nM"}, {"measurement": "apparent KD of MS2 coat protein", "setting": "[3]", "value": 50.2, "unit": "nM"}]}, {"sequence": "GAGCUGAUGUAGAGCGAAUAUUCGAGAGAUACCAGUACAGAAAUGUACCCUUGGCAGCUCAACUUUACAUGAGGAUCACCCAUGU [Ex Theophylline A 23]", "values": [{"measurement": "apparent KD of MS2 coat protein", "setting": "input ligand: arginine 13.2 mM", "value": 15, "unit": "nM"}, {"measurement": "apparent KD of MS2 coat protein", "setting": "[1]", "value": 15.6, "unit": "nM"}, {"measurement": "apparent KD of MS2 coat protein", "setting": "[3]", "value": 14.7, "unit": "nM"}]}, {"sequence": "UUUUAGCAUCGAAGGAGCGCUGGUAGGUGACACAUGAGGAUCACCCAUGUGCUCCUUGCCGAGCAGGUAGGUCGCGAUGCUAUUU [SSAB NP+V+V2 #8]", "values": [{"measurement": "apparent KD of MS2 coat protein", "setting": "input ligand: arginine 13.2 mM", "value": 31.4, "unit": "nM"}, {"measurement": "apparent KD of MS2 coat protein", "setting": "input ligand: none", "value": 52.6, "unit": "nM"}, {"measurement": "apparent KD of MS2 coat protein", "setting": "[1]", "value": 62.9, "unit": "nM"}, {"measurement": "apparent KD of MS2 coat protein", "setting": "[2]", "value": 73.3, "unit": "nM"}, {"measurement": "apparent KD of MS2 coat protein", "setting": "[3]", "value": 46.2, "unit": "nM"}]}, {"sequence": "GCACUACAUGAGGAUCACCCAUGUGCAGAUACCAGAGGUGUAUGCCUCCCUUGGCAGCUGCGUCGCUCUGGCAGCUUGUGGGUUG [Same State Theophylline A GF18]", "values": [{"measurement": "apparent KD of MS2 coat protein", "setting": "input ligand: arginine 13.2 mM", "value": 40.3, "unit": "nM"}, {"measurement": "apparent KD of MS2 coat protein", "setting": "[1]", "value": 117, "unit": "nM"}, {"measurement": "apparent KD of MS2 coat protein", "setting": "[3]", "value": 81.5, "unit": "nM"}]}, {"sequence": "ACAUGAGGCUCACCCAUGUGUAGUGGGUGGCGAGGACCGGUACGGCCGCCACUCGGCAACAUGAGGAUCACCCAUGUAAGGCCCU [RNA Blob]", "values": [{"measurement": "apparent KD of MS2 coat protein", "setting": "input ligand: arginine 13.2 mM", "value": 39.6, "unit": "nM"}, {"measurement": "apparent KD of MS2 coat protein", "setting": "input ligand: none", "value": 133, "unit": "nM"}, {"measurement": "apparent KD of MS2 coat protein", "setting": "[1]", "value": 134, "unit": "nM"}, {"measurement": "apparent KD of MS2 coat protein", "setting": "[2]", "value": 148, "unit": "nM"}, {"measurement": "apparent KD of MS2 coat protein", "setting": "[3]", "value": 35, "unit": "nM"}]}]}
